Reference: US20220289837A1 (VIB VZW, published 2022)

Legend:
[1] = molecular target: T1, 2PT-F508del-CFTR expressed in BHK-21 cells (human, UniProt P13569 1-1480, I539T; S492P; A534P; F508del); experiment: flow cytometry on permeabilised BHK-21 cells expressing 2PT-F508del-CFTR, anti-tag antibody and Alexa Fluor 488 secondary
T1 construct: Full-length F508del CFTR stabilized by the three point mutations; permeabilized cells in flow cytometry
Text: Graph depicts one representative of at least three independent experiments. (FIG. 4F) Average median fluorescence (fold over negative control) for each of the three representative nanobodies as illustrated in (FIG. 4D) and (FIG. 4E). Quantification of at least 3 independent experiments (±SEM). (g) Immunoblot of CFTR from solubilized BHK-21 cells pulled-down with His-tagged nanobodies, including a non-CFTR nanobody as a control. Eluted nanobodies-CFTR complexes were separated by SDS-PAGE and presence of CFTR was detected with mAb 596 antibody after immunoblotting. Arrows indicate the mature (band C) and immature (band B) forms of CFTR. Representative of at least 3 independent experiments. (FIG. 4H) Flow cytometry analysis of nanobodies T2a, T8 and G3a on BHK-21 cells expressing 2PT-F508del showing increased labelling for T2a and G3a, but not T8. (FIG. 4I) Quantification of data illustrated in […]. Average of 3 independent experiments (±SEM).
Parental BHK-21 cells (ATCC; CCL-10) and cells stably overexpressing human wt-CFTR^{[43,44,47]} or 2PT-F508del-CFTR, as described above, were permeabilized with 0.01% n-Dodecyl-β-D-Maltopyranoside β-DDM—Inalco) at least for 2 h on ice. In the meantime, cells were incubated with 50 μg/ml nanobodies and DRAQ7 (0.3 μM—Biostatus) to monitor the permeabilization state. Nanobody binding was detected by using His-tag specific antibody (Invitrogen, catalogue number MA1-135, 1 μg/ml) or Myc-tag specific antibody (Invitrogen, catalogue number 13-2500, 2 μg/ml) and then anti-mouse-Alexa Fluor 488 (Invitrogen, catalogue number A11001, 1.3 μg/ml) at least for 30 min on ice. Cells were washed one time between each step by centrifugation (200×g for 5 min at 4° C.). All incubations (100 μl) and washes (1.5 ml) were performed in PBS with 6% fetal bovine serum (FBS) and 0.01%13-DDM on ice. Cells fluorescence was measured with Gallios Flow Cytometer (Beckman Coulter). Data were analyzed with Kaluza software.

[2] = molecular target: T2, 2PT-NBD1 (human CFTR nucleotide-binding domain 1, residues 387-646, with S492P, A534P, I539T) (human, UniProt P13569 388-646, biotinylated for the ELISA (sites not given)); experiment: ITC, nanobody titrated into 2PT-NBD1 at 20 °C, one-site model
T2 construct: N-terminal His6-SUMO tag removed with Ulp1; In the T2a-T4 and T27 crystals the domain was cut by papain or subtilisin
T2 sequence (P13569 388-646 V470M/S492P/A534P/I539T limits assumed): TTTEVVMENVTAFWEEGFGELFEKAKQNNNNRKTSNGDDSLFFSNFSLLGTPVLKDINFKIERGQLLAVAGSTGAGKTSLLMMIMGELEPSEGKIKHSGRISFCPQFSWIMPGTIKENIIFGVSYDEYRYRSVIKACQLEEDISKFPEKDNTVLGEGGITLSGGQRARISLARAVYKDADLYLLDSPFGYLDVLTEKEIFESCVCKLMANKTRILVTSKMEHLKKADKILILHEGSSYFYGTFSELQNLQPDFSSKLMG
Method: (§1) Isothermal titration calorimetry (ITC) was used to characterize the thermodynamic parameters of the binding (FIG. 1e and FIG. 9). […] These KD values are similar to those measured for other in vivo matured camelid heavy-chain antibodies interacting with their ligands^{[20]}. The thermodynamic parameters of the interaction of nanobodies with 2PT-NBD1 were determined based on these ITC measurements (FIG. 1e and FIG. 9).
(§2) Interactions between nanobodies and 2PT-NBD1 was carried out on NanoITC system (TA Instruments) in 0.165 ml cells at 20° C., 300 rpm syringe stirring. Proteins were extensively dialyzed in 20 mM Hepes buffer pH 7.5, 150 mM NaCl, 10% (w/v) glycerol, 10% (w/v) ethylene glycol, 2 mM ATP and 3 mM MgCl₂ for 16 h at 4° C. Heat of dilution from control experiments of each nanobody titrated into buffer was subtracted from the titration into 2PT-NBD1. Data were integrated analyzed with Origin 7.0 software (Origin Lab Corp.).

[3] = molecular target: T2, 2PT-NBD1 (human CFTR nucleotide-binding …); experiment: ELISA, biotinylated 2PT-NBD1 on avidin-coated plate, nanobody titrated, anti-His detection; column head 'pEC50 (M)'
Method: (§3) (a) Nanobody binding to 2PT-NBD1 measured by ELISA. Biotinylated 2PT-NBD1 was immobilized on avidin-coated plates and incubated with increasing concentration of each nanobody. Binding of nanobody was followed by immunodetection of the His-tag (see Methods). Representative curve of 3 independent experiments is shown. Error bars represent the standard deviation (SD) of duplicates. Data were normalized to maximum signal for each nanobody separately. (b) Nanobody binding to F508del-2PT-NBD1 measured by ELISA as described in panel a. (c) Nanobody T4 binding to 2PT-NBD1 and F508del-2PT-NBD1. Data were normalized to maximum signal of T4 binding to 2PT-NBD1. (d) Nanobody T8 binding to 2PT-NBD1 and F508del-2PT-NBD1. Data were normalized to maximum signal of T8 binding to 2PT-NBD1.
(§4) For dose-response assays, Nunc MaxiSorp 96-well plates (ThermoScientific), were coated with 5 μg/ml NeutrAvidin Biotin-Binding protein (ThermoScientific) overnight at 4° C. and blocked 2 h at room temperature (RT) with 2% milk in phosphate-buffered saline (PBS). Each new reagent addition was preceded by three washes with 200 μl of NBD1 buffer (20 mM HEPES pH 7.5, 150 mM NaCl, and 10% (w/v) glycerol, 10% (w/v) ethylene glycol, 2 mM ATP, 3 mM MgCl₂). Then, biotinylated purified NBD1 proteins at 5 μg/ml were immobilized 30 min at RT followed by 1 h RT incubation with 100 μl various concentrations (0-20 μg/ml) of purified nanobodies. Signal detection was followed using His-tag specific antibody (Invitrogen, catalogue number: MA1-135, 1:3000 dilution) to detect the nanobodies and secondary antibody anti-mouse coupled to horse radish peroxidase (HRP) (Millipore, catalogue number: AP308P, 1:5000 dilution). 50 μl of 1-Step UltraTMB-ELISA (ThermoScientific) was used as a substrate for the peroxidase and intensity of the reaction was proportional to absorbance measured at 450 nm with SynergyMx (BioTek) after addition of 50 μl H₂SO₄ at 1M.

[4] = molecular target: T2, 2PT-NBD1 (human CFTR nucleotide-binding …); experiment: isothermal titration calorimetry, nanobody titrated into 2PT-NBD1 at 20 °C, one-site model
Method: as §1, §2

F508del-2PT-NBD1 = molecular target: T3, F508del-2PT-NBD1 (human, UniProt P13569 388-646, biotinylated for the ELISA (sites not given)); experiment: ELISA, biotinylated F508del-2PT-NBD1 on avidin-coated plate, nanobody titrated, anti-His detection
T3 construct: also called F508del-2PT-NBD1 mutant
T3 sequence (P13569 other isoform, or with tags, fused parts or gaps limits assumed, stated change not applied): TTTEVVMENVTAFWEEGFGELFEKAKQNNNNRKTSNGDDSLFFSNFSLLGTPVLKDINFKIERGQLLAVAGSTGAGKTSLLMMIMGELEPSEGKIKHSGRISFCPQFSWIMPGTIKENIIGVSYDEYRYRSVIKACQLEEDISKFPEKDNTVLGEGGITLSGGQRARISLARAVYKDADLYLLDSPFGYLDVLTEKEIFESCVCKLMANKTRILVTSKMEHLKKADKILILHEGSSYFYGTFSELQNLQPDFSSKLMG
Method: as §3, §4

[5] = molecular target: T2, 2PT-NBD1 (human CFTR nucleotide-binding …); experiment: ELISA, biotinylated 2PT-NBD1 on avidin-coated plate, D12 titrated
Text: (§5) The location of these nanobodies completely overlaps (FIG. 11a) with that of the C-terminal regulatory extension (RE) observed in previously published structures of NBD1^{[25,26].} The RE segment, comprising residues 654-673 was removed from the 2PT-NBD1 construct used for immunization and characterization. While the functional role of the RE is still unclear, it has been described to be a very mobile domain^{[27]}. […] This is consistent with RE being a dynamic region of CFTR.
as §4, with “Signal detection was followed using His-tag specific antibody (Invitrogen, catalogue number: MA1-135, 1:3000 dilution) to detect the nanobodies and secondary antibody anti-mouse coupled to horse radish peroxidase (HRP) (Millipore, catalogue number: AP308P, 1:5000 dilution).” left out

[6] = molecular target: T4, 2PT-NBD1-RE (2PT-NBD1 with residues 387-678, containing the regulatory extension) (human, UniProt P13569 387-678, biotinylated for the ELISA (sites not given)); experiment: ELISA, biotinylated 2PT-NBD1-RE on avidin-coated plate, D12 titrated
T4 sequence (P13569 other isoform, or with tags, fused parts or gaps limits assumed): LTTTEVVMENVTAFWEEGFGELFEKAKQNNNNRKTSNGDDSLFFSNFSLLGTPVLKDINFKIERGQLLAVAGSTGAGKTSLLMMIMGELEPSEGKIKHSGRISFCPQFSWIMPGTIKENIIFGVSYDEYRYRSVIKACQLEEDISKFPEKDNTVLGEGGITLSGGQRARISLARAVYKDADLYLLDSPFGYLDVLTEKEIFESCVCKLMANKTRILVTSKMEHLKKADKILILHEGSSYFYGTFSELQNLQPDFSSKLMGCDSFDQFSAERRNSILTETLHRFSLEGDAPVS
Text: as §5
as §4, with “Signal detection was followed using His-tag specific antibody (Invitrogen, catalogue number: MA1-135, 1:3000 dilution) to detect the nanobodies and secondary antibody anti-mouse coupled to horse radish peroxidase (HRP) (Millipore, catalogue number: AP308P, 1:5000 dilution).” left out

[7] = molecular target: Purified human wt-CFTR (His10-SUMO*-CFTRFLAG-EGFP), PKA phosphorylated (human, UniProt P13569 1-1480, PKA phosphorylated (sites not given)); experiment: cell-based or functional assay
Chain of Purified human wt-CFTR (His10-SUMO*-CFTRFLAG-EGFP), PKA phosphorylated (P13569 whole entry): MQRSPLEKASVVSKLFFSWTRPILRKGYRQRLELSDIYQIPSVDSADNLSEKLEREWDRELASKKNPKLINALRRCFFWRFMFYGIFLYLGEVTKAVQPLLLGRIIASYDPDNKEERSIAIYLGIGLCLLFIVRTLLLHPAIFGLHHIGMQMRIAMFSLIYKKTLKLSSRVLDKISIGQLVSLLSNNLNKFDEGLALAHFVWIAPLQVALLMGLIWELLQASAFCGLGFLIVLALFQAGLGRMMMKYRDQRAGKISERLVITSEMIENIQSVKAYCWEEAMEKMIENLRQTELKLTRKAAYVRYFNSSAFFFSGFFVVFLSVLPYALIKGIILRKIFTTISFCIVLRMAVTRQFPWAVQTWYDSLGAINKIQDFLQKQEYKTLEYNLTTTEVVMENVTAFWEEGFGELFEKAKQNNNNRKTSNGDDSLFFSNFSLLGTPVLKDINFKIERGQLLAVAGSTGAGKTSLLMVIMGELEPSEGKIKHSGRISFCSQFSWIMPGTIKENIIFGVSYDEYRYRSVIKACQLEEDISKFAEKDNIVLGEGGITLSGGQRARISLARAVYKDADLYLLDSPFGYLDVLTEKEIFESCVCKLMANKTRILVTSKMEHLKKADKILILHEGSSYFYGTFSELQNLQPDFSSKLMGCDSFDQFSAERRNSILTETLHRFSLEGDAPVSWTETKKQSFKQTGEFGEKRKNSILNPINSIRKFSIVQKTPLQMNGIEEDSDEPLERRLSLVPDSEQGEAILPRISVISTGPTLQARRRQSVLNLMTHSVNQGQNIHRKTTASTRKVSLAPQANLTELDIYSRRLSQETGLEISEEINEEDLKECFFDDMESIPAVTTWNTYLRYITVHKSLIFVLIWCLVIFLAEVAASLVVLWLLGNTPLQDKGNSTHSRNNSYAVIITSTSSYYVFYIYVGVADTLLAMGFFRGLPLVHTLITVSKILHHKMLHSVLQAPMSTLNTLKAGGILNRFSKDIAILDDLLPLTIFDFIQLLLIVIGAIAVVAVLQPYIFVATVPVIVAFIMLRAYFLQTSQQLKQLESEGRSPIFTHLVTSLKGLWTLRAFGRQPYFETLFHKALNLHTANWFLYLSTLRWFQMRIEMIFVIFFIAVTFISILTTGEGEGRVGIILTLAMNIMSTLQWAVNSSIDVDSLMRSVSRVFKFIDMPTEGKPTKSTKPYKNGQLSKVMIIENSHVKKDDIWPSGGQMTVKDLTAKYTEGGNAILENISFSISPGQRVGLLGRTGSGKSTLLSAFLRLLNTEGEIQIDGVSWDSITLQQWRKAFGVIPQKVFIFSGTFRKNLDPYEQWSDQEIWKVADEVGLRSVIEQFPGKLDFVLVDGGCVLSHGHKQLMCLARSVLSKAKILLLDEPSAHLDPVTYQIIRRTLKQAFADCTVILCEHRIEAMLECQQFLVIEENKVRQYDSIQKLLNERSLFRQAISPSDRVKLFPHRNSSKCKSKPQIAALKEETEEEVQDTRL

[8] = molecular target: T2, 2PT-NBD1 (human CFTR nucleotide-binding …); experiment: cell-based or functional assay
[9] = molecular target: T5, Stabilized human CFTR (stab-CFTR: 2PT/ΔRI/R1048A_1172X) (human, UniProt P13569 1-1171, limits assumed); experiment: cell-based or functional assay
T5 sequence (P13569 other isoform, or with tags, fused parts or gaps R1048A R1048A limits assumed): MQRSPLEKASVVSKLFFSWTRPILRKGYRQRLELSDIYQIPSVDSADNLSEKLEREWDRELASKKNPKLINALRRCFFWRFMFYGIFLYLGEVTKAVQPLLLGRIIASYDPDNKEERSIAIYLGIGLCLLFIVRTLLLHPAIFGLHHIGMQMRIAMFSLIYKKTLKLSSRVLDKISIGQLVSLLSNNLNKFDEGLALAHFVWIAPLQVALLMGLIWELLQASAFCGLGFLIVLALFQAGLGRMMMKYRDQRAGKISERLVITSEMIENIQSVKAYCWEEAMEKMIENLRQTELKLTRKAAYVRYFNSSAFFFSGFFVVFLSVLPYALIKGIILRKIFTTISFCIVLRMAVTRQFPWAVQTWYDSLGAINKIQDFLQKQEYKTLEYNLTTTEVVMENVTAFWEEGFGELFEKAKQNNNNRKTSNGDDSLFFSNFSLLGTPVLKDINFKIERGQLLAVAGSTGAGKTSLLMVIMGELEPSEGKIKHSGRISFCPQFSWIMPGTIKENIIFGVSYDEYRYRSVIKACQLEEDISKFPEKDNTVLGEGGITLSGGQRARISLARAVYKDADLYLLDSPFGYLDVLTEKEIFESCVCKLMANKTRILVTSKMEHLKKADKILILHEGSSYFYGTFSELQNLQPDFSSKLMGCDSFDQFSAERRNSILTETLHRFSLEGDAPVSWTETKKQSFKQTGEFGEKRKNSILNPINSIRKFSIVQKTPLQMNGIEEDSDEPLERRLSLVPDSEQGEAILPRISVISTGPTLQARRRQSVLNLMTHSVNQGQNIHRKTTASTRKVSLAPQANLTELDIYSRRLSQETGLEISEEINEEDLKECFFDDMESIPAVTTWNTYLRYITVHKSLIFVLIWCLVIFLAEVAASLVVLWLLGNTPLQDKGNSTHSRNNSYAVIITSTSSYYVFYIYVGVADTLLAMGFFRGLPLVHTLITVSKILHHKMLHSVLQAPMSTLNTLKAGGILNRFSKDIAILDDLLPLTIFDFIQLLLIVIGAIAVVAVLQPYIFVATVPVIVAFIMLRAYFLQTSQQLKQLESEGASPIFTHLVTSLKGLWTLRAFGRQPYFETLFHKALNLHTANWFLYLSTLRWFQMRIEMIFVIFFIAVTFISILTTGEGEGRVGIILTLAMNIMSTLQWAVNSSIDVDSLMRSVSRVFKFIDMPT

[10] = molecular target: T5, Stabilized human CFTR (stab-CFTR: …); experiment: cell-based or functional assay; remark: listed apart in the source
[11] = molecular target: T2, 2PT-NBD1 (human CFTR nucleotide-binding …); experiment: ELISA, biotinylated 2PT-NBD1 on avidin-coated plate, T27 titrated
Text: as §5
as §4, with “Signal detection was followed using His-tag specific antibody (Invitrogen, catalogue number: MA1-135, 1:3000 dilution) to detect the nanobodies and secondary antibody anti-mouse coupled to horse radish peroxidase (HRP) (Millipore, catalogue number: AP308P, 1:5000 dilution).” left out

[12] = molecular target: T4, 2PT-NBD1-RE (2PT-NBD1 with residues …); experiment: ELISA, biotinylated 2PT-NBD1-RE on avidin-coated plate, T27 titrated
Text: as §5
as §4, with “Signal detection was followed using His-tag specific antibody (Invitrogen, catalogue number: MA1-135, 1:3000 dilution) to detect the nanobodies and secondary antibody anti-mouse coupled to horse radish peroxidase (HRP) (Millipore, catalogue number: AP308P, 1:5000 dilution).” left out

T1 sequence (P13569 other isoform, or with tags, fused parts or gaps I539T/S492P/A534P/F508del): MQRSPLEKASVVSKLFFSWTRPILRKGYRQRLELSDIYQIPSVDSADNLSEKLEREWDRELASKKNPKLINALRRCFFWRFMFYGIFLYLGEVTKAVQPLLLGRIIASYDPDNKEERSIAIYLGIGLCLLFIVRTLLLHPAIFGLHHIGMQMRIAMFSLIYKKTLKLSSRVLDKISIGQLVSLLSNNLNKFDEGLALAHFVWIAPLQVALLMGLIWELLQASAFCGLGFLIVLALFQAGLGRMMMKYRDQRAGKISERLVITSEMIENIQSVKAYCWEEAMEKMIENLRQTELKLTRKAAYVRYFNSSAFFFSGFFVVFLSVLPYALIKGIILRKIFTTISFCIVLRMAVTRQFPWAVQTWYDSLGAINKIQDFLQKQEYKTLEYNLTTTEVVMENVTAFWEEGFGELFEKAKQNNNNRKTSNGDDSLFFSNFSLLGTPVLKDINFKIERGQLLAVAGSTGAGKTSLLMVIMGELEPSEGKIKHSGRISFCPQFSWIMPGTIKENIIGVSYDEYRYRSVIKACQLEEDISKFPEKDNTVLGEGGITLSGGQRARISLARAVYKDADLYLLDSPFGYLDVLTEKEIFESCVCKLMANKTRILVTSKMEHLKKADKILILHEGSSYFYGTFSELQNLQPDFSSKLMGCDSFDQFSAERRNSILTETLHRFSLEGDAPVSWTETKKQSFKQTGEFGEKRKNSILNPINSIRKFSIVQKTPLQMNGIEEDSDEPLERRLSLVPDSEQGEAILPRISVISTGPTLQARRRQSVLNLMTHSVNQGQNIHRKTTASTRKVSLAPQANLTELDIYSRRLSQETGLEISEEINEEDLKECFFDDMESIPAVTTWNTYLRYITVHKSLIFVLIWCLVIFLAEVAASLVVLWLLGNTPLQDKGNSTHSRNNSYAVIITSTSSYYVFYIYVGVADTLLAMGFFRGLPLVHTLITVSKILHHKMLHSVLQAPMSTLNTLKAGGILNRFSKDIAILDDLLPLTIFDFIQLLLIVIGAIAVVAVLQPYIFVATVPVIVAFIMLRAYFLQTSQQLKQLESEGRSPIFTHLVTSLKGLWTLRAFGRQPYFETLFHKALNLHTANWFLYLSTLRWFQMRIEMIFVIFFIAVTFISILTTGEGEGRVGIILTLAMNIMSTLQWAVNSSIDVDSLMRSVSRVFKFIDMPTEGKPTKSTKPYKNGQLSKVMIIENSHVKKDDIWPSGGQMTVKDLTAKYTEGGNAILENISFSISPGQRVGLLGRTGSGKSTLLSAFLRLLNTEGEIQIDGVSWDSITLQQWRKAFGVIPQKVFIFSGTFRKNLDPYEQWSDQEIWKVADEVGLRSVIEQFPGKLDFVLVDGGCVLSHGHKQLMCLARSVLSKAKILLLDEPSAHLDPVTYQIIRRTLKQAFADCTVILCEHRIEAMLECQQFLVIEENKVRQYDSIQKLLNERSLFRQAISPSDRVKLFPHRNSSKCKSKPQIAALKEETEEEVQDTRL

Row | Binder | binding result [1] | ΔG [2] | ΔH [2] | pEC50 [3] | Kd [4] | EC50 (read off the curve) (F508del-2PT-NBD1) | EC50 (read off the curve) [5] | EC50 (read off the curve) [6] | ATPase activity (% of PKA-phosphorylated CFTR) [7] | increase of Tm (thermal shift assay, DSF) [8] | thermostabilization (nanoDSF, Tm) [9] | Tm of stab-CFTR in complex with the nanobody (nanoDSF, first derivative of 350 nm fluorescence); 'stab-CFTR (51.4°C)', 'T4 (73.8°C)' alone [10] | EC50 (read off the curve) [11] | EC50 (read off the curve) [12]
1 | Nanobody G3a (VHH, not shown: small tags and cut ends, Llama nanobody, non-stabilizing; also called Nb G3a; G3a Nb) VHH: QVQLQESGGGLVQAGGSLRLSCTASGRAFSWYVMGWFRQAPGKEREFVATVSGNGSRRDYADSVKGRFTISRDNAKNTVYLQMNSLKPEDTAVYYCAASSTYYYTDPEKYDYWGQGTQVTVSS | binds | -7.98 kcal/mol | -11.4 kcal/mol | 5.8 | 1100 nM | ~2000 nM | – | – | – | – | – | – | – | –
2 | Nanobody D12 (VHH, not shown: small tags and cut ends, Llama nanobody raised against 2PT-NBD1; produced in E. coli periplasm; also called Nb D12; D12 Nb) VHH: QVQLQESGGGLVQAGSSLRLACAATGSIRSINNMGWYRQAPGKQRGMVAIITRVGNTDYADSVKGRFTISRDNAKNTVYLQMNSLKPEDTATYYCHAEITEQSRPFYLTDDYWGQGTQVTVSS | – | – | – | 7.6 | – | ~10 nM | ~50 nM | ~80 nM | 50% | 13.8 °C | – | – | – | –
3 | Nanobody T4 (VHH, not shown: small tags and cut ends) VHH: QVQLQESGGGLVQAGGSLRLSCAASGSTFAIIAMGWYRQAPGKQRELVAVISTGDTRYADSVKGRFTISRDNAKNTVYLQMDSLRPEDTAVYYCNAAVQVRDYRNYWGQGTQVTVSS | – | – | – | – | – | – | – | – | – | – | 8 °C | 59.4 °C | – | –
4 | Nanobody T27 (VHH, not shown: small tags and cut ends, Llama nanobody; also called NbT27; T27 Nb) VHH: QVQLQESGGGLEQPGGSLRLSCATSGVIFGINAMGWYRQAPGKQRELVATFTSGGSTNYADFVEGRFTISRDNAKNTVYLQMNGLRPEDTAVYYCHATVVVSRYGLTYDYWGQGTQVTVSS | – | -10.2 kcal/mol | -12.1 kcal/mol | 8.7 | 25 nM | ~2 nM | – | – | 30% | 11.9 °C | – | – | ~3 nM | ~3 nM
